Measurements taken from PMC5332438.
Blank lines part the entries; values can stand above or below the molecule they belong to.

How the values were obtained:
Test in all cases: co-IP
[1] = target: human mitochondrial adenine nucleotide translocator, C-terminal c-Myc-DDK tag (human) (UniProt P12235)
[2] = target: human translocase of outer mitochondrial membrane 22 homolog, C-terminal c-Myc and DDK tags (human) (UniProt Q9NS69)
[3] = target: Full length human BKCa alpha-subunit starting from Met1, 3xHA-tagged, with DEC splice insert (human)
Sequence of Full length human BKCa alpha-subunit starting from Met1, 3xHA-tagged, with DEC splice insert (human) (Q12791 whole entry, canonical isoform): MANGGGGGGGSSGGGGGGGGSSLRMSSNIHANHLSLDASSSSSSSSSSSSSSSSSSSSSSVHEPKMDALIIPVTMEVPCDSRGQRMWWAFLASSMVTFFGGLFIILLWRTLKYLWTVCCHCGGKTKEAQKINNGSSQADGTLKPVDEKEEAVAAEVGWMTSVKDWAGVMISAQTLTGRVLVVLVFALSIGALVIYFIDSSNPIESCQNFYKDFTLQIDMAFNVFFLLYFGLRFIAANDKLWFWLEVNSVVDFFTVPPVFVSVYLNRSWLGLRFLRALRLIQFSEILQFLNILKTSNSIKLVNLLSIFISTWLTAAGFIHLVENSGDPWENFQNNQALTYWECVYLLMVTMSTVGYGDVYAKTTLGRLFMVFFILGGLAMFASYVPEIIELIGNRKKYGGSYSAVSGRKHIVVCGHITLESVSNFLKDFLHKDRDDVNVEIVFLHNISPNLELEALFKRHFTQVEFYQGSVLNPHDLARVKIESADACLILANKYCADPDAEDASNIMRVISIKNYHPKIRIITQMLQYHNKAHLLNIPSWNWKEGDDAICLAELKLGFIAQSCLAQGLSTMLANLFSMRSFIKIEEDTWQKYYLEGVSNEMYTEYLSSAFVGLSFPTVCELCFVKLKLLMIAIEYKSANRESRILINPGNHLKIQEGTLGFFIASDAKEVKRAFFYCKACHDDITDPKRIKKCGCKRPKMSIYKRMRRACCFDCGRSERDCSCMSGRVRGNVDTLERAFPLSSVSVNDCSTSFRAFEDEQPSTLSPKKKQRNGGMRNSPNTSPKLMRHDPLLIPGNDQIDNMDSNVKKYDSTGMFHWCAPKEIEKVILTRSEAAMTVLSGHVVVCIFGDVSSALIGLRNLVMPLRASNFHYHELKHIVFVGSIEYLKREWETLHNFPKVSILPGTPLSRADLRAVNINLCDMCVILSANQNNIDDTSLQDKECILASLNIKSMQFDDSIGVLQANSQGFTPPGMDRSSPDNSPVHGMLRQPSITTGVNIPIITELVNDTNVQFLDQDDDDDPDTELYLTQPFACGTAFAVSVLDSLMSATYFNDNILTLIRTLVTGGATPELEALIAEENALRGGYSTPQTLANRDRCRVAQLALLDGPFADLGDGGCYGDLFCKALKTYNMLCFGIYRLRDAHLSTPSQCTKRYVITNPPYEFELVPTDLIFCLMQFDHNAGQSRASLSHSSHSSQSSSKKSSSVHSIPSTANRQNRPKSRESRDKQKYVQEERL

[4] = target: Full length human BKCa alpha-subunit starting from Met1, 3xHA-tagged, without DEC (human)
Sequence of Full length human BKCa alpha-subunit starting from Met1, 3xHA-tagged, without DEC (human) (Q12791 whole entry): as the sequence (Q12791 whole entry, canonical isoform) above

[5] = target: human BKCa alpha-subunit starting from Met3, untagged (human)
Sequence of human BKCa alpha-subunit starting from Met3, untagged (human) (Q12791 whole entry): as the sequence (Q12791 whole entry, canonical isoform) above

Molecule: c-Myc-BKCa 1-711 (domain or fragment)
Co-IP efficiency (compared to wild-type BKCa) [1]: 0.91

B1: human translocase of outer mitochondrial membrane 22 homolog, C-terminal c-Myc and DDK tags (natural protein)
chain: MAAAVAAAGAGEPQSPDELLPKGDAEKPEEELEEDDDEELDETLSERLWGLTEMFPERVRSAAGATFDLSLFVAQKMYRFSRAALWIGTTSFMILVLPVVFETEKLQMEQQQQLQQRQILLGPNTGLSGGMPGALPSLPGKI
Co-IP efficiency [3]: 0.91 | Co-IP efficiency [4]: 0.89

B2: human mitochondrial adenine nucleotide translocator, C-terminal c-Myc-DDK tag (natural protein)
chain: MGDHAWSFLKDFLAGGVAAAVSKTAVAPIERVKLLLQVQHASKQISAEKQYKGIIDCVVRIPKEQGFLSFWRGNLANVIRYFPTQALNFAFKDKYKQLFLGGVDRHKQFWRYFAGNLASGGAAGATSLCFVYPLDFARTRLAADVGKGAAQREFHGLGDCIIKIFKSDGLRGLYQGFNVSVQGIIIYRAAYFGVYDTAKGMLPDPKNVHIFVSWMIAQSVTAVAGLVSYPFDTVRRRMMMQSGRKGADIMYTGTVDCWRKIAKDEGAKAFFKGAWSNVLRGMGGAFVLVLYDEIKKYV
Co-IP efficiency (BKCa-DEC = 1) [5]: 0.69

More lines, now with the values ahead:

Co-IP efficiency (compared to wild-type BKCa) [1]: 0.17 | Co-IP efficiency (wild-type BKCa = 1) [2]: 0.33
Molecule: c-Myc-BKCa 322-1113 (domain or fragment)

Co-IP efficiency (compared to wild-type BKCa) [1]: 0.33 | Co-IP efficiency (wild-type BKCa = 1) [2]: 0.42
Molecule: c-Myc-BKCa 679-1113 (domain or fragment)
